Measurements reported in patent publication US20210024646A1 (FUDAN UNIVERSITY, published 2021).

T1: CD73 on the surface of human tumor cells (human, UniProt P21589 27-549)
T1 sequence (looked up): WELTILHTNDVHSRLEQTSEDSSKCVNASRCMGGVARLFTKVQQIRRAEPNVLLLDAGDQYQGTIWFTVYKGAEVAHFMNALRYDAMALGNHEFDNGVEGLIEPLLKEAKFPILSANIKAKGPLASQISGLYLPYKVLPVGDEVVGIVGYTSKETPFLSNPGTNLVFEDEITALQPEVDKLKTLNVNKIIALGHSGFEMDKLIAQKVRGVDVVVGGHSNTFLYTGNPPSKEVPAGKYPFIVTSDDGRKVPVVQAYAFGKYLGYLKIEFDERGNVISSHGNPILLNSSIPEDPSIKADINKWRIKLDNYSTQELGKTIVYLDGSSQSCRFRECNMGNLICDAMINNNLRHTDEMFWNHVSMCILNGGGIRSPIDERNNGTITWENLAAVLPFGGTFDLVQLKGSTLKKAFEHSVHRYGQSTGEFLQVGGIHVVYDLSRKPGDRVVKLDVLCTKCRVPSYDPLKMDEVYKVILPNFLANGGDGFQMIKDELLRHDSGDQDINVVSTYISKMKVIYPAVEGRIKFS

T2: extracellular domain of human CD73 protein (CD73-ECD), C-terminus polyhistidine-tagged (human, UniProt P21589 27-547)
T2 sequence: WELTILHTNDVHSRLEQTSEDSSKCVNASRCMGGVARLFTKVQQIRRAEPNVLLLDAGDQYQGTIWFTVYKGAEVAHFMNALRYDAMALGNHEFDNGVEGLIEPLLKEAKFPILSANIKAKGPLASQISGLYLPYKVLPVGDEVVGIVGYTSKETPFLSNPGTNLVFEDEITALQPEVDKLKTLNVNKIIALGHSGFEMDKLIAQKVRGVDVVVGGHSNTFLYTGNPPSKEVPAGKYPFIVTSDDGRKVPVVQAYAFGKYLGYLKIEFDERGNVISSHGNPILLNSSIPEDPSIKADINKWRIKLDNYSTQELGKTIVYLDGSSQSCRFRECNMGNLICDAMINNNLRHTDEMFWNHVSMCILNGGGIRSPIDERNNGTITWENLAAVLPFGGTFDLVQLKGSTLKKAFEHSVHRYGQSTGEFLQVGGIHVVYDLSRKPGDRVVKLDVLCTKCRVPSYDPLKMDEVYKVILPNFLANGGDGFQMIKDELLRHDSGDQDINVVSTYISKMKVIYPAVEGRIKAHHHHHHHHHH

B1: MEDI9447-κ (antibody, V domains shown)
VH: EVQLLESGGGLVQPGGSLRLSCAASGFTFSSYAYSWVRQAPGKGLEWVSAISGSGGRTYYADSVKGRFTISRDNSKNTLYLQMNSLRAEDTAVYYCARLGYGRVDEWGRGTLVTVSS
VL: QSVLTQPPSASGTPGQRVTISCSGSLSNIGRNPVNWYQQLPGTAPKLLIYLDNLRLSGVPDRFSGSKSGTSASLAISGLQSEDEADYYCATWDDSHPGWTFGGGTKLTVL
B2: mAb004c (antibody, V domains shown)
VH: EVQLQQSGPELVKPGASVKIPCKASGYTFTDYNMDWVKQSHGKSLEWIGDINPNNGGSVYNQKFKGKATLTVDKSSSTAYMELRSLTSEDTAVYYCGRITGTGYWSFDVWGTGTTVTVSP
VL: DIQMTQSPASLSVSVGETVTITCRASENIYSNLAWYQQKQGKSPQLLVYGATNLAEGVPSRFSGSGLGTQYSLKISSLQSEDFGSYYCQHFWGIPWTFGGGTKLEIK
notes: also called human-mouse chimeric antibody mAb004c
B3: mAb004 (antibody, IgG2b, V domains shown)
VH: EVQLQQSGPELVKPGASVKIPCKASGYTFTDYNMDWVKQSHGKSLEWIGDINPNNGGSVYNQKFKGKATLTVDKSSSTAYMELRSLTSEDTAVYYCGRITGTGYWSFDVWGTGTTVTVSP
VL: DIQMTQSPASLSVSVGETVTITCRASENIYSNLAWYQQKQGKSPQLLVYGATNLAEGVPSRFSGSGLGTQYSLKISSLQSEDFGSYYCQHFWGIPWTFGGGTKLEIK
B4: Hu001c-14 (antibody, V domains shown)
VH: QVQLVQSGAEVKKPGASVKVSCKTSGYTFTNYYIYWVRQAPGQRLEWMGWIYPGNLNIKYNEKFKGRVTITADTSASTAYMELSSLRSEDTAVYYCARDDNYAWFAYWGQGTLVTVSS
VL: DIQMTQSPSSLSASVGDRVTITCKASQDVSTAVAWYQQKPGKAPKLLIYWTNTRHTGVPSRFSGSGSGTDHTLTISSLQPEDFATYYCQQHYSTPFTFGQGTKLEIK
notes: Humanized
B5: Hu001c-15 (antibody, V domains shown)
VH: QVQLVQSGAEVKKPGASVKVSCKTSGYTFTNYYIYWVRQAPGQRLEWMGWIYPGNLNIKYNEKFKGRVTITADTSASTAYMELSSLRSEDTAVYYCARDDNYAWFAYWGQGTLVTVSS
VL: DIQMTQSPSSLSASVGDRVTITCKASQDVSTAVAWYQQKPGKSPKLLIYWTNTRHTGVPSRFSGSGSGTDHTLTISSLQPEDFATYYCQQHYSTPFTFGQGTKLEIK
notes: Humanized
B6: mAb001c (antibody, V domains shown)
VH: QVQLQQSGPELVKPGASVRISCKTSGYTFTNYYIYWVKQRPGQGLEWIGWIYPGNLNIKYNEKFKGKSTLTADKSSSTAFMQLSSLTSEDSAVYFCARDDNYAWFAYWGQGTLVTVSS
VL: DIVMTQSHKFMSTSIGDRVSITCKASQDVSTAVAWYQQKPGQSPKLLIYWTNTRHTGVPDRFTGNTSGTEHTLTISSVQAEDLALYYCQQHYSTPFTFGSGTTLEIK
notes: also called human-mouse chimeric antibody mAb001c
B7: mAb001 (antibody, IgG1, V domains shown)
VH: QVQLQQSGPELVKPGASVRISCKTSGYTFTNYYIYWVKQRPGQGLEWIGWIYPGNLNIKYNEKFKGKSTLTADKSSSTAFMQLSSLTSEDSAVYFCARDDNYAWFAYWGQGTLVTVSS
VL: DIVMTQSHKFMSTSIGDRVSITCKASQDVSTAVAWYQQKPGQSPKLLIYWTNTRHTGVPDRFTGNTSGTEHTLTISSVQAEDLALYYCQQHYSTPFTFGSGTTLEIK
B8: mAb002c (antibody, V domains shown)
VH: QVQLQQPGAELVKPGASVRLSCKASGYTLTSYWMHWVKKRPGQGLEWIGEINPSNGRSNYNEKFKSKATLTVDRSSSTVYMQLGSLTSEDSAVYYCARRGVSGNYFDYWGQGTTLTVSS
VL: DIKMTQSPSSMYASLGERVTMTCKASQDINTYLSWFQQKPGKSPKTLIYRSNILVDGVPSRFSGSRSGQDYYLTITSLEYEDMGIYYCLQYDEFPYTFGGGTKLELK
notes: also called human-mouse chimeric antibody mAb002c
B9: mAb002 (antibody, IgG1, V domains shown)
VH: QVQLQQPGAELVKPGASVRLSCKASGYTLTSYWMHWVKKRPGQGLEWIGEINPSNGRSNYNEKFKSKATLTVDRSSSTVYMQLGSLTSEDSAVYYCARRGVSGNYFDYWGQGTTLTVSS
VL: DIKMTQSPSSMYASLGERVTMTCKASQDINTYLSWFQQKPGKSPKTLIYRSNILVDGVPSRFSGSRSGQDYYLTITSLEYEDMGIYYCLQYDEFPYTFGGGTKLELK

What was measured:
[1] = target: T1, CD73 on the surface of human tumor cells; experiment: cell-based or functional assay
[2] = target: T1, CD73 on the surface of human tumor cells; experiment: FACS, NCI-H1299 cells
Procedure: Alternatively, 100 μL of mAb001c, mAb002c, mAb004c diluted in a 3-fold gradient from 100 nM to 0.046 nM were used as primary antibodies and mixed with 1×10⁵ NCI-H1299 cells suspended in 100 μL RPMI-1640 serum-free medium. Then the obtained solutions were incubated at 4° C. for 1 h, the cells were washed twice with PBS to remove unbound primary antibody, and the target cells were incubated with 200 μL PE-labeled secondary antibody (2 μg/mL) at 4° C. for 30 min. The cells were washed twice with PBS to remove unbound secondary antibody. Finally, the cells were resuspended in 200 μL PBS, and the binding affinities of the test antibodies to CD73 on the cell surface were determined by a flow cytometer.
With reference to the methods in Examples 4-8, the ELISA affinity to CD73-ECD protein, the inhibitory activity on recombinant human CD73 enzyme, the binding affinity to tumor cells, and the inhibitory activity on CD73 enzyme of tumor cells of the above prepared MEDI9447-κ as well as the antibodies mAb001c and mAb002c were detected.

[3] = target: T1, CD73 on the surface of human tumor cells; experiment: FACS, MDA-MB-231 cells
[4] = target: T1, CD73 on the surface of human tumor cells; experiment: cell-based or functional assay; remark: listed apart in the source
[5] = target: T2, extracellular domain of human CD73 …; experiment: cell-based or functional assay
[6] = target: T2, extracellular domain of human CD73 …; experiment: ELISA, coated CD73-ECD
[7] = target: T1, CD73 on the surface of human tumor cells; experiment: FACS, 5 µg/mL antibody, CD73-high Calu-1 against CD73-low MDA-MB-453 cells
Procedure: 3×10⁵ tumor cells were mixed well with the antibody (final concentration was 5 μg/mL), and then incubated at 4° C. for 1 h. The cells were washed twice with PBS to remove the unbound primary antibody. Then the target cells were incubated with PE-labeled secondary antibody at 4° C. for 30 minutes. The cells were washed twice with PBS to remove the unbound secondary antibody. Finally, the cells were resuspended in 200 μL PBS and the binding rate was detected with a Fluorescence Activated Cell Sorter (FACS).
The chimeric antibody could specifically recognize and bind tumor cells with CD73 high expression.

[8] = target: T1, CD73 on the surface of human tumor cells; experiment: flow cytometry, MDA-MB-231 cells
[9] = target: T1, CD73 on the surface of human tumor cells; experiment: flow cytometry, NCI-H1299 cells
[10] = target: T1, CD73 on the surface of human tumor cells; experiment: FACS, purified antibody serial dilution, MDA-MB-231 cells
[11] = target: T1, CD73 on the surface of human tumor cells; experiment: confocal microscopy, 5 µg/mL antibody, MDA-MB-231 cells
Procedure: The antibodies (5 μg/mL) were incubated with the cells at 4° C. for 1 hour, or at 37° C. for 4 hours, and then placed under a laser scanning confocal microscope to observe the results.
MDA-MB-231 cells of 50% density were spread in a laser confocal culture dish, cultured at 37° C. for 16 hours, and then 5 μg/mL CD73 antibody was added. The cells were incubated at 37° C. for 4 hours or 4° C. for 1 hour, washed three times with PBS to remove the antibodies unbound to the cells, and immobilized with 4% paraformaldehyde at room temperature for 30 minutes. The cells were washed three times with PBS and permeabilized with 0.4% Triton X-100 for 10 minutes. The cells were washed three times with PBS, the Lamp-2 (rabbit anti-human) antibody was added and incubated at 37° C. for 1 hour to mark the position of cell lysosome. The unbound antibodies were washed off with PBS, and R-PE-labeled goat anti-human and Alexa Fluor 488-labeled donkey anti-rabbit secondary antibodies were added and incubated at 37° C. for 30 min.

Row | Binder | Calu-1 CD73 Enzyme Inhibition IC50 [1] [nM] | MDA-MB-231 CD73 Enzyme Inhibition IC50 [1] [nM] | NCI-H1299 CD73 Enzyme Inhibition IC50 [1] [nM] | EC50 [2] [nM] | EC50 [3] [nM] | IC50, inhibition of AMP hydrolysis by recombinant human CD73 (CellTiter-Glo) [5] [nM] | EC50 [6] [nM] | difference in binding rate (MFI), Calu-1 against MDA-MB-453 [7] [times] | EC50 [8] [nM] | EC50 [9] [nM] | EC50 [10] [nM] | other results
1 | B1 | 0.527 | 1.1 | 0.388 | 1.27 | 0.752 |  |  |  |  |  |  | 
2 | B2 |  |  |  |  |  | 0.039 | 0.038 | 856 | 2.5 | 2.2 |  | IC50, inhibition of CD73 enzyme on Calu-1 cells (AMP hydrolysis) [4]: 0.63 nM; IC50, inhibition of CD73 enzyme on MDA-MB-231 cells (AMP hydrolysis) [4]: 4.16 nM; IC50, inhibition of CD73 enzyme on NCI-H1299 cells (AMP hydrolysis) [4]: 0.385 nM
3 | B3 |  |  |  |  |  |  |  |  |  |  | 4.69 | 
4 | B4 |  |  |  |  |  |  |  |  |  |  |  | binding result [11]: binds; binding result [6]: binds
5 | B5 |  |  |  |  |  |  |  |  |  |  |  | binding result [11]: binds; binding result [6]: binds
6 | B6 | 0.506 | 1.86 | 0.236 | 1.03 | 0.712 | 0.025 | 0.024 | 250 | 0.7 | 1 |  | 
7 | B7 |  |  |  |  |  |  |  |  |  |  | 1.24 | 
8 | B8 | 0.281 | 0.791 | 0.191 | 0.391 | 0.356 | 0.031 | 0.016 | 978 | 0.36 | 0.39 |  | 
9 | B9 |  |  |  |  |  |  |  |  |  |  | 0.65 | 
